DC50 Y1-DC50 WT and RA WT/RA Y1 data for one substance are collected here from patent US20040072240A1.

This assay has as its target HLA A2.1 molecule (human). Nature of the assay: T2 cells, flow cytometry; P1Y variant against its natural peptide.

P1Y variant of gp100 209 (peptide) gave a DC50 Y1-DC50 WT of 2 h and an RA WT/RA Y1 of 1.7.
